From article doi:10.1101/2020.11.03.367284
pKd: −log10 of the molar value.

What was measured:
[1] = molecular target: GSU0105, triheme c-type cytochrome from Geobacter sulfurreducens, with C-terminal Factor Xa-cleavable His-tag (Geobacter sulfurreducens); experiment: SAXS
[2] = molecular target: GSU0105, triheme c-type cytochrome from Geobacter sulfurreducens, with C-terminal Factor Xa-cleavable His-tag (Geobacter sulfurreducens); experiment: pull-down

| stoichiometry N [1] | pKd [2] | Substance |
| --- | --- | --- |
| 4 | – | GSU0105, triheme c-type cytochrome from Geobacter sulfurreducens, with C-terminal Factor Xa-cleavable His-tag (natural protein) |
| – | > 5.00 | PpcD, triheme cytochrome c7 from Geobacter sulfurreducens (natural protein) |
